# T1: R.DpnI R231A (UniProt P0A460 1-254, R231A)
# T1 sequence: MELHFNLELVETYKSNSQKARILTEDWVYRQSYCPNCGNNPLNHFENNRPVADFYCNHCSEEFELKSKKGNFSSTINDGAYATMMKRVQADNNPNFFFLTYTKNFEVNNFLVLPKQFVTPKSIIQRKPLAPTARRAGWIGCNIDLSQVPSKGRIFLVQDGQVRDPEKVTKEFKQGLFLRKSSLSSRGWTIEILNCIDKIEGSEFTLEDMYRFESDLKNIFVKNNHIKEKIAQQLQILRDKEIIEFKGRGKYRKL
# T2: R.DpnI wH domain (UniProt P0A460 181-254)
# T2 sequence: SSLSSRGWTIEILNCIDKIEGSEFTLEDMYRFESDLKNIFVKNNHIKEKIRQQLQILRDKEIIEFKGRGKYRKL
# B1: hmDNA (dsDNA)
# DNA 1: ATATGGGATCGTCAGTCAGCG
# DNA 2: CGCTGACTGACGATCCCATAT
# modifications: m6A in GATC on one strand only (which strand not recoverable from text)
# B2: nmDNA (dsDNA)
# DNA 1: ATATGGGATCGTCAGTCAGCG
# DNA 2: CGCTGACTGACGATCCCATAT
# B3: mDNA (dsDNA)
# DNA 1: ATATGGGATCGTCAGTCAGCG
# DNA 2: CGCTGACTGACGATCCCATAT
# modifications: m6A at position 8 of strand 1 and position 13 of strand 2 (5'-3')
# Legend:
# [1] = target: T1, R.DpnI R231A; experiment: filter binding
# [2] = target: T2, R.DpnI wH domain; experiment: filter binding
Binder,binding result [1],binding signal [2] [counts]
B1,no binding,–
B2,no binding,–
B3,–,2e+06
